# Experimental data as given in US20090130760A1 (ST MARIANNA UNIVERSITY SCHOOL OF MEDICINE, published 2009).
# Target: T1, GST (UniProt P08515 1-218 = GST)
# T1 construct: Control of the GST pull-down
# Assay: GST pull-down on glutathione-agarose beads, SDS-PAGE and Sypro Ruby stain
# Procedure: The proteins bound to the beads were separated by SDS-PAGE and stained with Sypro Ruby.
# Four micrograms of the GST fusion protein was mixed with 4 μg of His-BARD1¹⁴⁻¹⁸⁹ and 25 μl of glutathione-agarose beads in 1 ml of a buffer containing 50 mM Tris-HCl (pH 7.5), 0.5% NP-40, 150 mM NaCl, 50 mM NaF and 1 mM dithiothreitol. After rotation at 4° C. for 2 hours, GST fusion proteins bound to glutathione-agarose beads were washed three times and subsequently eluted with SDS-PAGE loading buffer.
# T1 sequence (P08515 whole entry): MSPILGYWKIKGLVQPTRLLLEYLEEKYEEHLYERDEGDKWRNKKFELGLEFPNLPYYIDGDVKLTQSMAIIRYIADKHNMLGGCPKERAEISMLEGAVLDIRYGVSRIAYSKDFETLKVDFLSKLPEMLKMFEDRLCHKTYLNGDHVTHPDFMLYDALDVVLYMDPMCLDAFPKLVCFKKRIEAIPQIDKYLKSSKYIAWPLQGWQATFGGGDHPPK
binder,measurement,value
"His-BARD1^14-189 (other, Bacterially expressed recombinant protein; not shown: His tag) IRSGNEPRSAPAMEPDGRGAWAHSRAALDRLEKLLRCSRCTNILREPVCLGGCEHIFCSNCVSDCIGTGCPVCYTPAWIQDLKINRQLDSMIQLCSKLRNLLHDNELSDLKEDKPRKSLFNDAGNKKNSIKMWFSPRSKKVRYVVSKASVQTQPAIKKDASAQQDSYEFVSPSPPA",binding result,no binding (tested: 4 µg of each protein in 1 ml)
